{"source": "patent US20240158455A1", "about": "“MULTIPLE SCLEROSIS ASSOCIATED AUTOANTIGENS, AND USE THEREOF IN THERAPY AND DIAGNOSIS” (NEOGAP Therapeutics AB, priority 2017, published 2024)"}
{"target": "HLA DRB5 01:01", "assay": "competitive HLA binding assay (legend: - No binding)", "details": "not given"}
{"molecule": "AVITGACDKDSQCGG (also called Pool 1 PROK2)", "note": "[PROK2 peptide #1 (Aa 28-42 of SEQ ID NO: 2)]", "binding result": "no binding"}
{"molecule": "KWDGKETNFVREIKD (also called Pool 4 FABP7)", "note": "[FABP7 peptide #20 (Aa 97-111 of SEQ ID NO: 1)]", "binding result": "no binding"}
{"molecule": "VREIKDGKMVMVSND (also called Pool 5 FABP7)", "note": "[FABP7 peptide #25 (Aa 106-120 of SEQ ID NO: 1)]", "binding result": "no binding"}
{"molecule": "GKMVMTLTFGDVVAV (FABP7 isoform 1 peptide; also called Pool 4 FABP7)", "note": "[FABP7 peptide #23 (Aa 112-126 of SEQ ID NO: 6)]", "binding result": "no binding"}
{"molecule": "HLLPSSSLLLPFFLL (also called Pool 6 FABP7)", "note": "[FABP7 peptide #31 (Aa 136-150 of SEQ ID NO: 1)]", "binding result": "no binding"}
{"molecule": "DDRNCKSVVSLDGDK (also called Pool 3 FABP7)", "note": "[FABP7 peptide #16 (Aa 77-91 of SEQ ID NO: 1)]", "binding result": "no binding"}
{"molecule": "LVHIQKWDGKETNFV (also called Pool 4 FABP7)", "note": "[FABP7 peptide #19 (Aa 92-106 of SEQ ID NO: 1)]", "binding result": "no binding"}
{"molecule": "TNSQNFDEYMKALGV (also called Pool 1 FABP7)", "note": "[FABP7 peptide #3 (Aa 12-26 of SEQ ID NO: 1)]", "binding result": "no binding"}
{"molecule": "REIKDGKMVMTLTFG (FABP7 isoform 1 peptide; also called Pool 4 FABP7)", "note": "[FABP7 peptide #22 (Aa 107-121 of SEQ ID NO: 6)]", "binding result": "no binding"}
{"molecule": "LDGDKLVHIQKWDGK (also called Pool 3 FABP7)", "note": "[FABP7 peptide #18 (Aa 87-101 of SEQ ID NO: 1)]", "binding result": "no binding"}
{"molecule": "DETTADDRNCKSVVS (also called Pool 3 FABP7)", "note": "[FABP7 peptide #15 (Aa 72-86 of SEQ ID NO: 1)]", "binding result": "no binding"}
{"molecule": "MVSNDNSPFFLVFFS (also called Pool 5 FABP7)", "note": "[FABP7 peptide #27 (Aa 116-130 of SEQ ID NO: 1)]", "binding result": "no binding"}
{"molecule": "KALGVGFATRQVGNV (also called Pool 1 FABP7)", "note": "[FABP7 peptide #5 (Aa 22-36 of SEQ ID NO: 1)]", "binding result": "no binding"}
{"molecule": "KSVVSLDGDKLVHIQ (also called Pool 3 FABP7)", "note": "[FABP7 peptide #17 (Aa 82-96 of SEQ ID NO: 1)]", "binding result": "no binding"}
{"molecule": "SSLLLPFFLLPSFFN (also called Pool 6 FABP7)", "note": "[FABP7 peptide #32 (Aa 141-155 of SEQ ID NO: 1)]", "binding result": "no binding"}
{"target": "HLA DRB5 01:01 (Homo sapiens, UniProt P01903+Q30154)", "assay": "Competitive binding assay of overlapping peptides to HLA", "details": "competitive binding to HLA DRB5 01:01, compared with reference H1N1 influenza peptide"}
{"molecule": "Aa 02-16-SEQ ID NO: 1 (VEAFCATWKLTNSQN; listed as Homo sapiens) [FABP7 #1]", "Binding affinity": "+"}
{"molecule": "Aa 07-21-SEQ ID NO: 1 (ATWKLTNSQNFDEYM; listed as Homo sapiens) [FABP7 #2]", "Binding affinity": "+"}
{"molecule": "Aa 12-26-SEQ ID NO: 1 (TNSQNFDEYMKALGV; listed as Homo sapiens) [FABP7 #3]", "Binding affinity": "−"}
{"molecule": "Aa 17-31-SEQ ID NO: 1 (FDEYMKALGVGFATR; listed as Homo sapiens) [FABP7 #4]", "Binding affinity": "++"}
{"molecule": "Aa 22-36-SEQ ID NO: 1 (KALGVGFATRQVGNV; listed as Homo sapiens) [FABP7 #5]", "Binding affinity": "−"}
{"molecule": "Aa 27-41-SEQ ID NO: 1 (GFATRQVGNVTKPTV; listed as Homo sapiens) [FABP7 #6]", "Binding affinity": "+"}
{"molecule": "Aa 28-42-SEQ ID NO: 2 (AVITGACDKDSQCGG; listed as Homo sapiens) [PROK2 #1]", "Binding affinity": "−"}
{"molecule": "Aa 32-46-SEQ ID NO: 1 (QVGNVTKPTVIISQE; listed as Homo sapiens) [FABP7 #7]", "Binding affinity": "−"}
{"molecule": "Aa 33-47-SEQ ID NO: 2 (ACDKDSQCGGGMCCA; listed as Homo sapiens) [PROK2 #2]", "Binding affinity": "−"}
{"molecule": "Aa 37-51-SEQ ID NO: 1 (TKPTVIISQEGDKVV; listed as Homo sapiens) [FABP7 #8]", "Binding affinity": "−"}
{"molecule": "Aa 38-52-SEQ ID NO: 2 (SQCGGGMCCAVSIWV; listed as Homo sapiens) [PROK2 #3]", "Binding affinity": "−"}
{"molecule": "Aa 42-56-SEQ ID NO: 1 (IISQEGDKVVIRTLS; listed as Homo sapiens) [FABP7 #9]", "Binding affinity": "−"}
{"molecule": "Aa 43-57-SEQ ID NO: 2 (GMCCAVSIWVKSIRI; listed as Homo sapiens) [PROK2 #4]", "Binding affinity": "+"}
{"molecule": "Aa 47-61-SEQ ID NO: 1 (GDKVVIRTLSTFKNT; listed as Homo sapiens) [FABP7 #10]", "Binding affinity": "+"}
{"molecule": "Aa 48-62-SEQ ID NO: 2 (VSIWVKSIRICTPMG; listed as Homo sapiens) [PROK2 #5]", "Binding affinity": "+"}
{"molecule": "Aa 52-66-SEQ ID NO: 1 (IRTLSTFKNTEISFQ; listed as Homo sapiens) [FABP7 #11]", "Binding affinity": "−"}
{"molecule": "Aa 53-67-SEQ ID NO: 2 (KSIRICTPMGKLGDS; listed as Homo sapiens) [PROK2 #6]", "Binding affinity": "+++"}
{"molecule": "Aa 57-71-SEQ ID NO: 1 (TFKNTEISFQLGEEF; listed as Homo sapiens) [FABP7 #12]", "Binding affinity": "−"}
{"molecule": "Aa 58-72-SEQ ID NO: 2 (CTPMGKLGDSCHPLT; listed as Homo sapiens) [PROK2 #7]", "Binding affinity": "−"}
{"molecule": "Aa 59-69 + 96-99-SEQ ID NO: 2 [PROK2 #15]", "Binding affinity": "−"}
{"molecule": "Aa 62-76-SEQ ID NO: 1 (EISFQLGEEFDETTA; listed as Homo sapiens) [FABP7 #13]", "Binding affinity": "−"}
{"molecule": "Aa 63-77-SEQ ID NO: 2 (KLGDSCHPLTRKNNF; listed as Homo sapiens) [PROK2 #8]", "Binding affinity": "−"}
{"molecule": "Aa 64-69 + 96-104-SEQ ID NO: 2 [PROK2 #16]", "Binding affinity": "+"}
{"molecule": "Aa 67-81-SEQ ID NO: 1 (LGEEFDETTADDRNC; listed as Homo sapiens) [FABP7 #14]", "Binding affinity": "−"}
{"molecule": "Aa 68-82-SEQ ID NO: 2 (CHPLTRKNNFGNGRQ; listed as Homo sapiens) [PROK2 #9]", "Binding affinity": "+"}
{"molecule": "Aa 69 + 96-109-SEQ ID NO: 2 [PROK2 #17]", "Binding affinity": "−"}
{"molecule": "Aa 72-86-SEQ ID NO: 1 (DETTADDRNCKSVVS; listed as Homo sapiens) [FABP7 #15]", "Binding affinity": "−"}
{"molecule": "Aa 73-87-SEQ ID NO: 2 (RKNNFGNGRQERRKR; listed as Homo sapiens) [PROK2 #10]", "Binding affinity": "+"}
{"molecule": "Aa 77-91-SEQ ID NO: 1 (DDRNCKSVVSLDGDK; listed as Homo sapiens) [FABP7 #16]", "Binding affinity": "−"}
{"molecule": "Aa 78-92-SEQ ID NO: 2 (GNGRQERRKRKRSKR; listed as Homo sapiens) [PROK2 #11]", "Binding affinity": "−"}
{"molecule": "Aa 82-96-SEQ ID NO: 1 (KSVVSLDGDKLVHIQ; listed as Homo sapiens) [FABP7 #17]", "Binding affinity": "−"}
{"molecule": "Aa 83-97-SEQ ID NO: 2 (ERRKRKRSKRKKEVP; listed as Homo sapiens) [PROK2 #12]", "Binding affinity": "−"}
{"molecule": "Aa 87-101-SEQ ID NO: 1 (LDGDKLVHIQKWDGK; listed as Homo sapiens) [FABP7 #18]", "Binding affinity": "−"}
{"molecule": "Aa 88-102-SEQ ID NO: 2 (KRSKRKKEVPFFGRR; listed as Homo sapiens) [PROK2 #13]", "Binding affinity": "−"}
{"molecule": "Aa 92-106-SEQ ID NO: 1 (LVHIQKWDGKETNFV; listed as Homo sapiens) [FABP7 #19]", "Binding affinity": "−"}
{"molecule": "Aa 93-107-SEQ ID NO: 2 (KKEVPFFGRRMHHTC; listed as Homo sapiens) [PROK2 #14]", "Binding affinity": "+"}
{"molecule": "Aa 97-111-SEQ ID NO: 1 (KWDGKETNFVREIKD; listed as Homo sapiens) [FABP7 #20]", "Binding affinity": "−"}
{"molecule": "Aa 100-114-SEQ ID NO: 2 (GRRMHHTCPCLPGLA; listed as Homo sapiens) [PROK2 #18]", "Binding affinity": "−"}
{"molecule": "Aa 102-116-SEQ ID NO: 1 (ETNFVREIKDGKMVM; listed as Homo sapiens) [FABP7 #21]", "Binding affinity": "+"}
{"molecule": "Aa 105-119-SEQ ID NO: 2 (HTCPCLPGLACLRTS; listed as Homo sapiens) [PROK2 #19]", "Binding affinity": "−"}
{"molecule": "Aa 106-120-SEQ ID NO: 1 (VREIKDGKMVMVSND; listed as Homo sapiens) [FABP7 #25]", "Binding affinity": "−"}
{"molecule": "Aa 107-121-SEQ ID NO: 6 (REIKDGKMVMTLTFG; listed as Homo sapiens) [FABP7 #22]", "Binding affinity": "−"}
{"molecule": "Aa 110-124-SEQ ID NO: 2 (LPGLACLRTSFNRFI; listed as Homo sapiens) [PROK2 #20]", "Binding affinity": "++"}
{"molecule": "Aa 111-125-SEQ ID NO: 1 (DGKMVMVSNDNSPFF; listed as Homo sapiens) [FABP7 #26]", "Binding affinity": "+"}
{"molecule": "Aa 112-126-SEQ ID NO: 6 (GKMVMTLTFGDVVAV; listed as Homo sapiens) [FABP7 #23]", "Binding affinity": "−"}
{"molecule": "Aa 115-129-SEQ ID NO: 2 (CLRTSFNRFICLAQK; listed as Homo sapiens) [PROK2 #21]", "Binding affinity": "+"}
{"molecule": "Aa 116-130-SEQ ID NO: 1 (MVSNDNSPFFLVFFS; listed as Homo sapiens) [FABP7 #27]", "Binding affinity": "−"}
{"molecule": "Aa 118-132-SEQ ID NO: 6 (LTFGDVVAVRHYEKA; listed as Homo sapiens) [FABP7 #24]", "Binding affinity": "+"}
{"molecule": "Aa 121-135-SEQ ID NO: 1 (NSPFFLVFFSSPHTS; listed as Homo sapiens) [FABP7 #28]", "Binding affinity": "+++"}
{"molecule": "Aa 126-140-SEQ ID NO: 1 (LVFFSSPHTSHLLPS; listed as Homo sapiens) [FABP7 #29]", "Binding affinity": "+"}
{"molecule": "Aa 131-145-SEQ ID NO: 1 (SPHTSHLLPSSSLLL; listed as Homo sapiens) [FABP7 #30]", "Binding affinity": "+"}
{"molecule": "Aa 136-150-SEQ ID NO: 1 (HLLPSSSLLLPFFLL; listed as Homo sapiens) [FABP7 #31]", "Binding affinity": "−"}
{"molecule": "Aa 141-155-SEQ ID NO: 1 (SSLLLPFFLLPSFFN; listed as Homo sapiens) [FABP7 #32]", "Binding affinity": "−"}
{"molecule": "Aa 146-160-SEQ ID NO: 1 (PFFLLPSFFNNTSLA; listed as Homo sapiens) [FABP7 #33]", "Binding affinity": "++"}
{"molecule": "Aa 152-166-SEQ ID NO: 1 (SFFNNTSLARFFNYM; listed as Homo sapiens) [FABP7 #34]", "Binding affinity": "+"}
